Experiment in all cases: ELISA; receptor in solution, complex captured on BMP-7 GF mAb
Test [1] addresses BMP-7 complex containing biotinylated GF (mature BMP-7 biotinylated through the glycan, reconstituted with … (human, UniProt P18075 293-431, biotin through the sugars (sodium metaperiodate, hydrazide PEG4 Biotin))).
Test [2] has as its target BMP-7 complex containing biotinylated prodomain (prodomain biotinylated through amines, reconstituted with … (human, UniProt P18075 293-431, biotin through amines (EZ-Link NHS-PEG4-Biotin))).
For test [3], the target named is unbiotinylated BMP-7 complex (bone morphogenetic protein 7 mature domain/prodomain soluble complex) (human, UniProt P18075 293-431).
Chain of unbiotinylated BMP-7 complex (bone morphogenetic protein 7 mature domain/prodomain soluble complex) (P18075 30-292, chain 1 of 2): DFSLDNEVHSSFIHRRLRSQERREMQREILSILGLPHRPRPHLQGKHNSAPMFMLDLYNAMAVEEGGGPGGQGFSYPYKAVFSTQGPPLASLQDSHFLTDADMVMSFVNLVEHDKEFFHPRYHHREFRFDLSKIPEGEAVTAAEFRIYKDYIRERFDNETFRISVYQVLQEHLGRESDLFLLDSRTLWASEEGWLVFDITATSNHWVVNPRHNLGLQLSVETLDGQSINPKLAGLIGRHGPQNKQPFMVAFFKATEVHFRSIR
Chain of unbiotinylated BMP-7 complex (bone morphogenetic protein 7 mature domain/prodomain soluble complex) (P18075 293-431, chain 2 of 2): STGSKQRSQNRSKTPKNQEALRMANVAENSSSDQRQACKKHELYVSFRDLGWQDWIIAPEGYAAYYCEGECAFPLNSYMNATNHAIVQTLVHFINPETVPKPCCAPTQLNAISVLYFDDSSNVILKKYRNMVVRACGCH

Chain of BMP-7 complex containing biotinylated prodomain (prodomain biotinylated through amines, reconstituted with … (P18075 30-292, chain 1 of 2): as the sequence (P18075 30-292, chain 1 of 2) above
Chain of BMP-7 complex containing biotinylated prodomain (prodomain biotinylated through amines, reconstituted with … (P18075 293-431, chain 2 of 2): as the sequence (P18075 293-431, chain 2 of 2) above
Chain of BMP-7 complex containing biotinylated GF (mature BMP-7 biotinylated through the glycan, reconstituted with … (P18075 30-292, chain 1 of 2): as the sequence (P18075 30-292, chain 1 of 2) above
Chain of BMP-7 complex containing biotinylated GF (mature BMP-7 biotinylated through the glycan, reconstituted with … (P18075 293-431, chain 2 of 2): as the sequence (P18075 293-431, chain 2 of 2) above

B1: BMPR2-Fc (bone morphogenetic protein receptor type-2 fused to Fc) (Fc fusion)
chain: SQNQERLCAFKDPYQQDLGIGESRISHENGTILCSKGSTCYGLWEKSKGDINLVKQGCWSHIGDPQECHYEECVVTTTPPSIQNGTYRFCCCSTDLCNVNFTENFPPPDTTPLSPPHSFNRDET
By Kd is commonly meant a measure of binding affinity in units of concentration. High values mean a looser complex, low ones a tighter complex. As to B1, the figures for the dissociation constant Kd in test [1], in test [2] and in test [3] were 8.7 nM, 19 nM and 11.9 nM, respectively.

These data come from PMC8801479 (2021).
